This assay concerns the target Filamentous actin (F-actin) (rabbit) (UniProt P68135). In words: co-sedimentation; high speed actin binding co-sedimentation: 10 uM Vt variant and 20 uM F-actin in actin polymerization buffer (10 mM Tris, 200 mM KCl, 10 mM imidazole, 2.5 mM MgCl2, 1 mM EGTA, 2 mM DTT, pH 7.5), room temperature 1 hr, 185,000 RCF for 60 min; fraction of Vt in the pellet by SDS-PAGE densitometry.

The record followed here is article PMC9882595.

In the case of Vt E1021A (domain or fragment), the reduction of F-actin binding relative to WT Vt stood at 2%.

Vt E1015A (domain or fragment) displayed a reduction of F-actin binding relative to WT Vt of 2%.
